In patent US20240301442A1 (Regeneron, published 2024):
“And” between values parts separate entries of the source, which are not always exact repeats. Equal entries are not always repeated.

Columns and labels:
[1] = target: recombinant full-length P. aeruginosa PcrV (GenScript) (Pseudomonas aeruginosa)
[2] = target: Zika virus envelope (Env) protein on MR766 virus (Zika virus MR766, UniProt Q32ZE1 291-790); test: cell-based or functional assay
[3] = target: PcrV of P. aeruginosa strain 6077 (on live bacteria) (Pseudomonas aeruginosa strain 6077); test: cell-based or functional assay
Zika (prM80E)-mmh = target: T1, Zika (prM80E)-mmh (Zika virus); test: ELISA, Zika (prM80E)-mmh coated, mouse serum, anti-human IgG HRP detection
T1 construct: domain: prM80E; also called Zika envelope protein; Lot #REGN4233-L4

B1: REGN4446 anti-Zika antibody expressed in mouse serum from episomal AAV2/8.CASI.REGN4446 HC T2A RORss LC (antibody, V domains shown)
VH: QVQLVESGGGVVQPGRSLRLSCAASGFTFNYYGMHWVRQAPGKGLEWVAVISYDGTNKYYADSVKGRFTTSRDNSKNTLYLQMNSLRAEDTALYYCARDRGGRFDYWGQGIQVTVSS
VL: EIVLTQSPDTLSLSPGERATLSCRASQSVSSNYLAWYQQKPGQAPRLLIYGASSRATGIPDRFSGSGSGTDFTLTISRLEPEDFAVYYCQRYGTSPLTFGGGTKVEIKR
notes: also called CASI HC T2A RORss LC; AAV2/8.CASI.REGN4446 HC T2A LC
With B1 the EC50 [1] was 204 nM, the “Neutralization EC50” value [2] was 0.469 nM and 0.605 nM and the “Neutralization IC50” value [3] was about 0.00889 nM. The EC50 (Zika (prM80E)-mmh) was 0.296 nM and 0.521 nM.
